Source: paper PMC9319256, “Human Enzyme PADI4 Binds to the Nuclear Carrier Importin α3” (Cells, 2022)

Tests used:
[1] = target: human importin α3 (Impα3), intact (human); assay: BLI; BLItz; His-tagged Impα3 or ΔImpα3 immobilised on His-tag biosensors at 0.3 µM; peptides 1-7 µM; manufacturer's buffer; 25 °C; pseudo-first-order plots; apparent
[2] = target: ΔImpα3, truncated importin α3 lacking the importin β-binding (IBB) domain (human); assay: as above
[3] = target: human importin α3 (Impα3), intact (human); assay: other fluorescence titration; peptide 0-20 µM added to 3 µM Impα3 or ΔImpα3; 20 mM Tris pH 7.5, 5 mM TCEP, 150 mM NaCl, 5% glycerol; 25 °C; fluorescence at 330 nm
[4] = target: ΔImpα3, truncated importin α3 lacking the importin β-binding (IBB) domain (human); assay: as above
[5] = target: human importin α3 (Impα3), intact (human); assay: ITC; PADI4 or peptide (100 µM) in the syringe titrated into importin (10 µM) in the cell; 20 mM Tris pH 7.5, 5 mM TCEP, 150 mM NaCl, 5% glycerol; 25 °C; single-site model
[6] = target: ΔImpα3, truncated importin α3 lacking the importin β-binding (IBB) domain (human); assay: as above

Sequence of human importin α3 (Impα3), intact (human) (O00629 whole entry, the tested form may be a part): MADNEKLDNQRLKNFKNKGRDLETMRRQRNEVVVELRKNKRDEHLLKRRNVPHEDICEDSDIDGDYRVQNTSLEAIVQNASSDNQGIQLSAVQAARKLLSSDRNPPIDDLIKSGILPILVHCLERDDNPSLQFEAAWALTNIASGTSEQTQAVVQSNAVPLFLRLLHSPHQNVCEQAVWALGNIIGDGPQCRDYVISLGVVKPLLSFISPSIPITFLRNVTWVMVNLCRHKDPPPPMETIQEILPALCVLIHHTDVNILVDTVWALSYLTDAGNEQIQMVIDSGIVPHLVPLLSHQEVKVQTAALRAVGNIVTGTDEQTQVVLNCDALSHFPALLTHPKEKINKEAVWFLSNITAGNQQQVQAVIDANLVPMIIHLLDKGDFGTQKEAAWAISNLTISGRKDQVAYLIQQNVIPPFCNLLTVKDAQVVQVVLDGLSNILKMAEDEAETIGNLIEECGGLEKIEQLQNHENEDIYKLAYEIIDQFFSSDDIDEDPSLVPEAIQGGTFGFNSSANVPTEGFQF

- Kd [1]: 99 µM
- koff [1]: 0.32 s⁻¹
- kon [1]: 3000 M⁻¹ s⁻¹
- Kd [2]: 12 µM
- koff [2]: 0.23 s⁻¹
- kon [2]: 20000 M⁻¹ s⁻¹
- Kd [3]: 4 µM
- Kd [4]: 4 µM
- Ka [5]: 43000 M⁻¹
- Kd [5]: 23 µM
- dH [5]: -35.7 kcal/mol
- stoichiometry N [5]: 1.08
- Ka [6]: 230000 M⁻¹
- Kd [6]: 4.3 µM
- dH [6]: -11.2 kcal/mol
- stoichiometry N [6]: 1.1
B1: NLS2-PADI4 peptide (peptide)
peptide: Ac-YKLFQEQQNEGHGEALLFEGIKKKKQQKI-NH2
